Measured values published in the supplement of paper PMC12764529.
± gives the half width of the 95% confidence interval.

Experiments:
[1] = folding stability dG unfold (combined trypsin and chymotrypsin); higher = more stable
Summary of the method: (§1)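 K50 was inferred by Bayesian fitting of sequencing counts obtained after protease digestion of designed mini-proteins. Unfolding free energy was derived by comparison with a sequence-predicted unfolded-state K50 and a shared folded-state K50, for each protease or both combined. The mini-proteins were under 80 residues, had no cysteine, were carried in a PA-tagged cDNA display construct, and were kept only if AlphaFold2 dimer inter-PAE exceeded 15.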

[2] = folding stability dG unfold from trypsin proteolysis; higher = more stable
Summary of the method: as §1

[3] = folding stability dG unfold from chymotrypsin proteolysis; higher = more stable
Summary of the method: as §1

Sequence | folding stability dG unfold [1] [kcal/mol] | folding stability dG unfold [2] [kcal/mol] | folding stability dG unfold [3] [kcal/mol]
SAGGSAGGSAGGPPLKVTEVETHKHPNGHRYVTMTLRPPNGGPVTIMFDPNNGKIQIMISAGGSAGGSAGGS [r10_1218_TrROS] | 2.94 ± 0.24 | 2.19 ± 0.13 | 3.35 ± 0.19
SAGMGATLVSESEEEIDSSGVRKLTYRSPGSLLVETLYPDGTVPVYVIDPSTGKVVEERVFHVPPDVPLSAG [r14_676_JUSTAS] | 0.204 ± 0.13 | 0.179 ± 0.13 | 0.166 ± 0.17
SAGGSAGGSAPKPKTKTIMFRFPGTPEDALDIAKEIANYFNDRGLEIEVERHPNGYIMITFPSAGGSAGGSA [r18_262_TrROS] | 2.61 ± 0.065 | 2.11 ± 0.059 | 2.82 ± 0.034
SAGGSAGGSAGMKEGEIVEVTVPIPENGEEIKVKVVAPPSLTEEEARALAEEKAKEIYEKSAGGSAGGSAGG [r11_355_JUSTAS] | 0.595 ± 0.077 | 0.0651 ± 0.062 | 0.99 ± 0.04
SAGGITIVWQPGYFRIEFPGNGNTVPIPIPPDDPGRTLEEFADEFIDEMSERFGIPPPEDIKIEYYDSAGGS [r8_402_TrROS] | 1.39 ± 0.15 | 1.31 ± 0.13 | 1.36 ± 0.084
SAGGSAGGSGYTTTTSTSISLSPTSFTVTTTTTTTDPVTKTTTVTTTTTTVPLPPSLLSLVSSSAGGSAGGS [r12_885_JUSTAS] | 2.5 ± 0.2 | 2.21 ± 0.17 | 2.97 ± 0.052
SAGGSAPPTYTFMIPIKEIYVPDPDNGKPKPIPVEEFADFLMPKFGIDVEILDVHPDWIQITVTPDSAGGSA [r15_55_TrROS] | 1.73 ± 0.19 | 1.81 ± 0.11 | 1.49 ± 0.091
SAEEVEIEIEIVIKMSEEEAERLAKELAEELARELGAEIVDVEVEVVEVDGELYVRIRVKIRLPKEELESAG [r14_219_TrROS_Hall] | 4.23 ± 0.14 | 3.47 ± 0.098 | 4.7 ± 0.17
SAGGSAGGMIVLPPGATVDFDPSVARLTVTVKDPNSDKSTTTTYDVPPTATVTSAPGTIVVNVPSAGGSAGG [r6_804_JUSTAS] | 0.171 ± 0.073 | -0.656 ± 0.14 | 0.476 ± 0.11
SAGGKTLTIEVNGKKYKITVEKNENGELTLTIYEYDKKTKKWKKIKTIKLKNMSLEEVLKLLKKLPPSAGGS [r16_378_TrROS_Hall] | 4.58 ± 0.3 | 4.09 ± 0.2 | 4.91 ± 0.19
SAGGSAGGSAGGKKKFGFLILVKNKDDEKLYLVEVPEELSLEEFLPDQEIDEEVIKKAIGSAGGSAGGSAGG [r17_412_TrMRF] | 0.724 ± 0.18 | 0.823 ± 0.082 | 0.665 ± 0.27
SAGGSAGGSAGEKDLPVIEVEFPFPSSFPLPLIKKFAEPFGVKKVEFFEDGTVKVLYVLDSAGGSAGGSAGG [r11_961_TrMRF] | 0.806 ± 0.13 | 0.416 ± 0.1 | 0.984 ± 0.14
SAGGKKIVLFVGPPELVEELKKAYPDLPFVPIPVEVLENPEPAAEIIKELKEKGYEVVVYNFPDLKESAGGS [r8_376_TrMRF] | 2.21 ± 0.071 | 1.37 ± 0.057 | 2.562 ± 0.021
SNKKWRTIELDFWFRTPEQAREWANNLARRLPPDNIDSISVEVEPFPVRKNGEPVGPVYRFKLTIMVRPESA [r9_605_TrROS] | 2.6 ± 0.091 | 2.33 ± 0.062 | 2.82 ± 0.032
SAGGSSVSSVTLLSSETYTEGEKTFKRTTYLVPLPDGTTAIVTTEETTPPENPPEVEVSSSTTPLPGSAGGS [r16_121_JUSTAS] | 1.63 ± 0.086 | 1.25 ± 0.044 | 1.78 ± 0.093
SAGGSAMTAEELARKLFPGAEVEVEVRLERNEDGSLSLRVEVRVRAAPPPEEEEVEEPEEVEEEEESAGGSA [r15_417_TrROS_Hall] | 2.2 ± 0.28 | 2.78 ± 0.16 | 1.99 ± 0.052
SAGGSAGGSAGYIKTEHEVTVMEKDPDGGTKMIEVPVKITIPIIPIPPEALEKNPEALKKFLSAGGSAGGSA [r18_114_TrROS] | 0.514 ± 0.22 | 0.461 ± 0.19 | 0.352 ± 0.14
SAGGSAGGSAGGSGSSVLVKTTTTLSVAPGATITLPDGTVYTVPAGVPVTVTTWVLVETSAGGSAGGSAGGS [r4_232_JUSTAS] | 3.38 ± 0.13 | 2.31 ± 0.14 | 4.05 ± 0.092
SAGEKTVKIKLPNTKTITVKVKKNEKKILYLPNGEKILITDVKKGKVSLKKGITYVKDKNGKWYPLKYKSAG [r5_417_TrMRF] | 1.37 ± 0.1 | 0.332 ± 0.15 | 1.86 ± 0.079
SAGGPGMEPIGEIKLDDGVTIEVWRPPNGWYRAKVEFPDNGKQINYPFNPNMSFEQAKDQIKELARKLSAGG [r13_624_TrROS] | 1.52 ± 0.36 | 0.519 ± 0.13 | 1.86 ± 0.15
SAGMKKTITIKIEVPEKPIRIIVEKNGKKEEITIKPGETVTIEIELEPGETLRIRIVNEDGEEFEFEIKSAG [r5_187_TrROS_Hall] | 3.68 ± 0.28 | 4.15 ± 0.3 | 3.45 ± 0.12
